Reference: US20190112341

Test system: EV71 structural polyprotein P1 (Wt HK08), unprocessed (98 kDa)

Substance | proteolytic processing of P1 in planta, anti-VP1 western blot (vectors 1300+1315) | proteolytic processing of P1 in planta, anti-VP1 western blot (vectors 1300+1310)
EV71 protease 3CD (Wt GDFS08) | the 98 kDa signal completely disappears and a new product is detected that corresponds in molecular weight to VP1 (33.5 kDa) | 
EV71 protease 3CD (Wt HK08) |  | the 98 kDa signal completely disappears and a new product is detected that corresponds in molecular weight to VP1 (33.5 kDa)
